The supplement of paper PMC11246515
± gives the standard deviation of the averaged measurements.

Experiment: total protein half-life in vivo (active degradation + dilution); higher = more stable protein
[1] = E. coli NCM3722 delta-clpP delta-lon delta-hslV, growth: N-lim chemostat, doubling time 6 h
[2] = E. coli NCM3722 delta-clpP, growth: N-lim chemostat, doubling time 6 h
[3] = E. coli NCM3722 delta-hslV, growth: N-lim chemostat, doubling time 6 h
[4] = E. coli NCM3722 delta-lon, growth: N-lim chemostat, doubling time 6 h
[5] = E. coli NCM3722 delta-smpB, growth: N-lim chemostat, doubling time 6 h
[6] = wild type E. coli NCM3722, growth: C-lim chemostat, doubling time 3 h
[7] = wild type E. coli NCM3722, growth: C-lim chemostat, doubling time 6 h
[8] = wild type E. coli NCM3722, growth: C-lim chemostat, doubling time 12 h
[9] = wild type E. coli NCM3722, growth: N-lim chemostat, doubling time 6 h
[10] = wild type E. coli NCM3722, growth: N-lim chemostat, doubling time 12 h
[11] = wild type E. coli NCM3722, growth: P-lim chemostat, doubling time 6 h
[12] = wild type E. coli NCM3722, growth: P-lim chemostat, doubling time 12 h

| Sequence | total protein half-life in vivo [1] | total protein half-life in vivo [2] | total protein half-life in vivo [3] | total protein half-life in vivo [4] | total protein half-life in vivo [5] | total protein half-life in vivo [6] | total protein half-life in vivo [7] | total protein half-life in vivo [8] | total protein half-life in vivo [9] | total protein half-life in vivo [10] | total protein half-life in vivo [11] | total protein half-life in vivo [12] |
| --- | --- | --- | --- | --- | --- | --- | --- | --- | --- | --- | --- | --- |
| MPIHDKSPRPQEFAAVDLGSNSFHMVIARVVDGAMQIIGRLKQRVHLADGLGPDNMLSEEAMTRGLNCLSLFAERLQGFSPASVCIVGTHTLRQALNATDFLKRAEKVIPYPIEIISGNEEARLIFMGVEHTQPEKGRKLVIDIGGGSTELVIGENFEPILVESRRMGCVSFAQLYFPGGVINKENFQRARMAAAQKLETLTWQFRIQGWNVAMGASGTIKAAHEVLMEMGEKDGIITPERLEKLVKEVLRHRNFASLSLPGLSEERKTVFVPGLAILCGVFDALAIRELRLSDGALREGVLYEMEGRFRHQDVRSRTASSLANQYHIDSEQARRVLDTTMQMYEQWREQQPKLAHPQLEALLRWAAMLHEVGLNINHSGLHRHSAYILQNSDLPGFNQEQQLMMATLVRYHRKAIKLDDLPRFTLFKKKQFLPLIQLLRLGVLLNNQRQATTTPPTLTLITDDSHWTLRFPHDWFSQNALVLLDLEKEQEYWEGVAGWRLKIEEESTPEIAA [P0AFL6] | 5.76 ± 0.2 h | 5.22 ± 0.12 h | 3.78 ± 0.22 h | 3.95 ± 0.21 h | 3.68 ± 0.057 h | 2.45 ± 0.086 h | 4.69 ± 0.06 h | 6.58 ± 0.48 h | 3.83 ± 0.3 h | 5.86 ± 0.01 h | 3.96 ± 0.56 h | 6.77 ± 0.37 h |
| MPIQVLPPQLANQIAAGEVVERPASVVKELVENSLDAGATRIDIDIERGGAKLIRIRDNGCGIKKDELALALARHATSKIASLDDLEAIISLGFRGEALASISSVSRLTLTSRTAEQQEAWQAYAEGRDMNVTVKPAAHPVGTTLEVLDLFYNTPARRKFLRTEKTEFNHIDEIIRRIALARFDVTINLSHNGKIVRQYRAVPEGGQKERRLGAICGTAFLEQALAIEWQHGDLTLRGWVADPNHTTPALAEIQYCYVNGRMMRDRLINHAIRQACEDKLGADQQPAFVLYLEIDPHQVDVNVHPAKHEVRFHQSRLVHDFIYQGVLSVLQQQLETPLPLDDEPQPAPRSIPENRVAAGRNHFAEPAAREPVAPRYTPAPASGSRPAAPWPNAQPGYQKQQGEVYRQLLQTPAPMQKLKAPEPQEPALAANSQSFGRVLTIVHSDCALLERDGNISLLSLPVAERWLRQAQLTPGEAPVCAQPLLIPLRLKVSAEEKSALEKAQSALAELGIDFQSDAQHVTIRAVPLPLRQQNLQILIPELIGYLAKQSVFEPGNIAQWIARNLMSEHAQWSMAQAITLLADVERLCPQLVKTPPGGLLQSVDLHPAIKALKDE | 5.64 ± 0.16 h | 5.376 ± 0.017 h | 4.58 ± 0.16 h | 5.29 ± 0.063 h | 4.59 ± 0.048 h | 3.002 ± 0.009 h | 5.614 ± 0.0069 h | 9.34 ± 0.55 h | 4.635 ± 0.043 h | 8.197 ± 0.054 h | 5.43 ± 0.11 h | 10.2 ± 0.69 h |
| MPIYQIDGLTPVVPEESFVHPTAVLIGDVILGKGVYVGPNASLRGDFGRIVVKDGANIQDNCVMHGFPEQDTVVGEDGHIGHSAILHGCIIRRNALVGMNAVVMDGAVIGENSIVGASAFVKAKAEMPANYLIVGSPAKAIRELSEQELAWKKQGTHEYQVLVTRCKQTLHQVEPLREIEPGRKRLVFDENLRPKQ | 5.05 ± 0.96 h | 4.12 ± 0.18 h | 4.15 ± 0.16 h | 5.43 ± 0.8 h | 3.9 ± 0.21 h | 3.49 ± 0.39 h | – | 11.6 ± 2.7 h | 4.19 ± 0.87 h | 6.81 h | 5.81 ± 0.34 h | 12.9 ± 0.92 h |
| MPKLVTWMNNQRVGELTKLANGAHTFKYAPEWLASRYARPLSLSLPLQRGNITSDAVFNFFDNLLPDSPIVRDRIVKRYHAKSRQPFDLLSEIGRDSVGAVTLIPEDETVTHPIMAWEKLTEARLEEVLTAYKADIPLGMIREENDFRISVAGAQEKTALLRIGNDWCIPKGITPTTHIIKLPIGEIRQPNATLDLSQSVDNEYYCLLLAKELGLNVPDAEIIKAGNVRALAVERFDRRWNAERTVLLRLPQEDMCQTFGLPSSVKYESDGGPGIARIMAFLMGSSEALKDRYDFMKFQVFQWLIGATDGHAKNFSVFIQAGGSYRLTPFYDIISAFPVLGGTGIHISDLKLAMGLNASKGKKTAIDKIYPRHFLATAKVLRFPEVQMHEILSDFARMIPAALDNVKTSLPTDFPENVVTAVESNVLRLHGRLSREYGSK | 5.44 ± 0.06 h | – | 5.63 ± 0.078 h | 5.73 ± 0.54 h | 5.22 ± 0.39 h | 3 ± 0.061 h | 5.65 ± 0.24 h | 10.8 ± 0.14 h | 5.21 ± 0.73 h | 9.66 ± 1.8 h | 6.37 ± 0.53 h | – |
| MPKRTDIKSILILGAGPIVIGQACEFDYSGAQACKALREEGYRVILVNSNPATIMTDPEMADATYIEPIHWEVVRKIIEKERPDAVLPTMGGQTALNCALELERQGVLEEFGVTMIGATADAIDKAEDRRRFDVAMKKIGLETARSGIAHTMEEALAVAADVGFPCIIRPSFTMGGSGGGIAYNREEFEEICARGLDLSPTKELLIDESLIGWKEYEMEVVRDKNDNCIIVCSIENFDAMGIHTGDSITVAPAQTLTDKEYQIMRNASMAVLREIGVETGGSNVQFAVNPKNGRLIVIEMNPRVSRSSALASKATGFPIAKVAAKLAVGYTLDELMNDITGGRTPASFEPSIDYVVTKIPRFNFEKFAGANDRLTTQMKSVGEVMAIGRTQQESLQKALRGLEVGATGFDPKVSLDDPEALTKIRRELKDAGADRIWYIADAFRAGLSVDGVFNLTNIDRWFLVQIEELVRLEEKVAEVGITGLNADFLRQLKRKGFADARLAKLAGVREAEIRKLRDQYDLHPVYKRVDTCAAEFATDTAYMYSTYEEECEANPSTDREKIMVLGGGPNRIGQGIEFDYCCVHASLALREDGYETIMVNCNPETVSTDYDTSDRLYFEPVTLEDVLEIVRIEKPKGVIVQYGGQTPLKLARALEAAGVPVIGTSPDAIDRAEDRERFQHAVERLKLKQPANATVTAIEMAVEKAKEIGYPLVVRPSYVLGGRAMEIVYDEADLRRYFQTAVSVSNDAPVLLDHFLDDAVEVDVDAICDGEMVLIGGIMEHIEQAGVHSGDSACSLPAYTLSQEIQDVMRQQVQKLAFELQVRGLMNVQFAVKNNEVYLIEVNPRAARTVPFVSKATGVPLAKVAARVMAGKSLAEQGVTKEVIPPYYSVKEVVLPFNKFPGVDPLLGPEMRSTGEVMGVGRTFAEAFAKAQLGSNSTMKKHGRALLSVREGDKERVVDLAAKLLKQGFELDATHGTAIVLGEAGINPRLVNKVHEGRPHIQDRIKNGEYTYIINTTSGRRAIEDSRVIRRSALQYKVHYDTTLNGGFATAMALNADATEKVISVQEMHAQIK | 5.02 ± 0.092 h | 4.45 ± 0.4 h | 4.581 ± 0.016 h | 5 ± 0.33 h | 4.81 ± 0.32 h | 3.11 ± 0.25 h | 5.75 ± 0.28 h | 10.6 ± 0.13 h | 4.65 ± 0.3 h | 8.22 ± 0.41 h | 6.2 ± 0.28 h | 12.6 ± 0.28 h |
| MPLPDFHVSEPFTLGIELEMQVVNPPGYDLSQDSSMLIDAVKNKITAGEVKHDITESMLELATDVCRDINQAAGQFSAMQKVVLQAATDHHLEICGGGTHPFQKWQRQEVCDNERYQRTLENFGYLIQQATVFGQHVHVGCASGDDAIYLLHGLSRFVPHFIALSAASPYMQGTDTRFASSRPNIFSAFPDNGPMPWVSNWQQFEALFRCLSYTTMIDSIKDLHWDIRPSPHFGTVEVRVMDTPLTLSHAVNMAGLIQATAHWLLTERPFKHQEKDYLLYKFNRFQACRYGLEGVITDPHTGDRRPLTEDTLRLLEKIAPSAHKIGASSAIEALHRQVVSGLNEAQLMRDFVADGGSLIGLVKKHCEIWAGD | 4.72 ± 0.45 h | 4.3 ± 0.47 h | 4.35 ± 0.24 h | 4.85 ± 0.29 h | 4.73 h | – | – | 9.5 ± 0.29 h | 4.59 h | 9.74 h | 6.17 ± 1 h | 11.6 ± 0.85 h |
